# B1: Serine/threonine-protein kinase PINK1, mitochondrial (Homo sapiens), Q9BXM7-1 (parent)
# chain: MAVRQALGRGLQLGRALLLRFTGKPGRAYGLGRPGPAAGCVRGERPGWAAGPGAEPRRVGLGLPNRLRFFRQSVAGLAARLQRQFVVRAWGCAGPCGRAVFLAFGLGLGLIEEKQAESRRAVSACQEIQAIFTQKSKPGPDPLDTRRLQGFRLEEYLIGQSIGKGCSAAVYEATMPTLPQNLEVTKSTGLLPGRGPGTSAPGEGQERAPGAPAFPLAIKMMWNISAGSSSEAILNTMSQELVPASRVALAGEYGAVTYRKSKRGPKQLAPHPNIIRVLRAFTSSVPLLPGALVDYPDVLPSRLHPEGLGHGRTLFLVMKNYPCTLRQYLCVNTPSPRLAAMMLLQLLEGVDHLVQQGIAHRDLKSDNILVELDPDGCPWLVIADFGCCLADESIGLQLPFSSWYVDRGGNGCLMAPEVSTARPGPRAVIDYSKADAWAVGAIAYEIFGLVNPFYGQGKAHLESRSYQEAQLPALPESVPPDVRQLVRALLQREASKRPSARVAANVLHLSLWGEHILALKNLKLDKMVGWLLQQSAATLLANRLTEKCCVETKMKMLFLANLECETLCQAALLLCSWRAAL
# partner: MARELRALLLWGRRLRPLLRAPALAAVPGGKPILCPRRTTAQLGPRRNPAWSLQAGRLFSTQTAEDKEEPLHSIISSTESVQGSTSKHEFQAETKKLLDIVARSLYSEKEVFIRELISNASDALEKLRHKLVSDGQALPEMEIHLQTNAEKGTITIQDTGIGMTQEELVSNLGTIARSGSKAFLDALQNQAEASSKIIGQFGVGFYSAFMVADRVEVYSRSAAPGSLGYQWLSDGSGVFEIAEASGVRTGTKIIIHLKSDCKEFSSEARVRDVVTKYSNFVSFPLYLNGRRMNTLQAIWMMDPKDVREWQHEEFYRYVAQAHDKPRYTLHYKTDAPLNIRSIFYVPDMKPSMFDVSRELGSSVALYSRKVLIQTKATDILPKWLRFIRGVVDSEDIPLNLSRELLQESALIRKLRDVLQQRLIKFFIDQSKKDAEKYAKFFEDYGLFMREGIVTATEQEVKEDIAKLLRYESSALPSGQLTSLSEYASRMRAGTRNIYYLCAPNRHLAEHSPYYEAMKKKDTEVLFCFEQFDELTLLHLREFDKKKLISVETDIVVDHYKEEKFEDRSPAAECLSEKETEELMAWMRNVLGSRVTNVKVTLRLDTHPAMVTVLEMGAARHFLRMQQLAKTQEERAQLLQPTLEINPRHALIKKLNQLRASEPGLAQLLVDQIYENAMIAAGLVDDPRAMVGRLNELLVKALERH
# Variants of: B1
# Conditions: with trap1_human TRAP1, Q12931
row,effect of a mutation on the interaction,Variant
1,decreasing interaction,G309D
2,decreasing interaction,L347P
3,decreasing interaction,D384A
4,decreasing interaction,D362A
5,decreasing interaction,K219A;D362A;D384A
